The target of one experiment is mouse VEGF-A165 (mouse) (UniProt Q00731). The experiment in a line: ELISA with purified Fab (direct on coated antigen or solution binding), 25 C.
Experiment [1] addresses T1, murine VEGF (mVEGF) (mouse) (UniProt Q00731).
T1 sequence (looked up): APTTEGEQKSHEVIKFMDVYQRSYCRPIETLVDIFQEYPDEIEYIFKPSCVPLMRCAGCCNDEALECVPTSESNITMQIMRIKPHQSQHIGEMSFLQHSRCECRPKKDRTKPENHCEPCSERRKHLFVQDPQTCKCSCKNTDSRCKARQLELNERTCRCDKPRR
Kind of experiment: method not stated, 25 C, unpublished results.

Sequence of Y0317 Fab (VH): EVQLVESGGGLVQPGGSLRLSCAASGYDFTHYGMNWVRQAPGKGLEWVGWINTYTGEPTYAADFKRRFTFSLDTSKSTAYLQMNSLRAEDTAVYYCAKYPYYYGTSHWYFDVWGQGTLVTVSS
Sequence of Y0317 Fab (VL): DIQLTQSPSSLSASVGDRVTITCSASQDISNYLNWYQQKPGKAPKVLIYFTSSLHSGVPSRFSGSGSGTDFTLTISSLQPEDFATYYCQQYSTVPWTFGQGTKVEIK

As to G6 Fab, the value printed without a name (ELISA) with mouse VEGF-A165 (mouse) came out at 0.6 nM.

As to Y0317 Fab, in experiment [1], the Kd (as a rule, a measure of binding affinity in units of concentration) came to 300 nM.

The values above are taken from patent US20110020346A1.
